Publication PMC8989322 (PLoS Pathogens, 2022)

Tests used:
[1] = target: T1, biotinylated ctCSP Pf16 peptide (residues 283–375 of P. falciparum 3D7 CSP) (Plasmodium falciparum 3D7, UniProt Q7K740, biotin (position not given)); experiment: ELISA; expressed mAbs screened for reactivity to Pf16 C-term peptide, as previously described [36]; conditions: both partners purified
T1 construct: circumsporozoite protein (CSP), P. falciparum 3D7, residues 283-375 (C-terminal domain); the results say biotinylated ctCSP (283-375); also called Pf16 C-term peptide; source: made by Biomatik (Wilmington, Delaware)

[2] = target: T2, αTSR domain or ctCSP (residues 310–375 of P. falciparum 3D7 CSP) (Plasmodium falciparum 3D7, UniProt Q7K740); experiment: crystal structure; Fab mixed with ctCSP (310-375) in a 2:1 molar ratio, complex purified by size exclusion chromatography, sitting drop vapor diffusion at 20°C; conditions: both partners purified
T2 construct: circumsporozoite protein (CSP), P. falciparum 3D7, residues 310-375 (αTSR domain), followed by a 6xHis tag; pET28a; also called 3D7 peptide; source: E. coli SHUFFLE, purified (Ni cOmplete resin, gel filtration on Superdex 200)
T2 sequence (Q7K740 310-375): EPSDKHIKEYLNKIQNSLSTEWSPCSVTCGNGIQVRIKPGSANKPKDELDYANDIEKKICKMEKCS

T1 sequence (Q7K740 283-375): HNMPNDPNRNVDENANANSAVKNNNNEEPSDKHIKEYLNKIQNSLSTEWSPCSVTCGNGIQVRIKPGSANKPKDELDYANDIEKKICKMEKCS

B1: mAb234 (antibody, V domains shown)
VH: EVQLVESGGGLVKPGGSLRLSCAASGFNFSTHIMNWVRQAPGKGLEWVSSISSSGTYIYYADSMKGRFTISRDNPKNSLYLQMNSLRAEDTAVYYCARARGFIQFHYYMDVWGKGTTVAVSS
VL: SYVLTQPPSVSVAPGKTARITCGGNNIGSKSVHWHQQRPGQAPVLVVYDDKIRPSGIPERFSGSNSGNTATLIISRVEAGDEADYYCQVWHSSSDPVVFGGGTKLTVL
notes: variable region as the heavy chain of m1 (PDB 7RXI); as the light chain of m1 (PDB 7RXI); IgG (captured by anti-human Fc); source: 293F cells, purified (Protein G Sepharose)
B1: binds [1].

B2: Fab234 (Fab, V domains shown)
VH: B1 VH
VL: B1 VL
notes: heavy chain of Fab234; light chain of Fab234; From an RTS,S/AS01 vaccinee; alpha-ctCSP class (IGHV3-21 or IGHV3-48 with IGLV3-21 or IGLV3-1); source: ExpiCHO cells, purified (HiTrap Protein G HP, size exclusion chromatography)
B2: binds [2].

B3: Fab1488 (Fab, V domains shown)
VH: EVHLVESGGGLVKPGGSLRLSCAASGFTFSSYTMNWVRQAPGKGLEWVSSISSSSTYIYYADSVRGRFTISRDNAKNSLYLQMNSLRAEDSAVYYCARRAGGFDAYYFDYWGQGTLVTVSS
VL: not shown
notes: heavy chain of Fab1488; light chain of Fab1488; From an RTS,S/AS01 vaccinee; alpha-ctCSP class (IGHV3-21 or IGHV3-48 with IGLV3-21 or IGLV3-1); source: ExpiCHO cells, purified (HiTrap Protein G HP, size exclusion chromatography)
B3: binds [2].

B4: Fab1512 (Fab, V domains shown)
VH: KVQLVQSGGGVVQPGRSQRLSCAASGLTLSEYAMHWVRQAPGKGLEWVAVILSDGTKKEYADSVKGRFTISRDNSKNTLYLQMNSLRAEDTAVYYCATDDNILGHCRSKSCQRNYYHGMDVWGQGTTVSVSS
VL: DIVMTQSPLSLPVTPGEPASISCRSSQSLLHSNGKNYLDWYLQKPGQSPQLLIYLGSDRASGVPDRFSGSGSGTDFTLSISRVEAEDVGVYYCMQALQTPFTFGPGTKVDIK
notes: heavy chain of Fab1512 (23-amino-acid CDR H3); light chain of Fab1512; From an RTS,S/AS01 vaccinee; beta-ctCSP class; source: ExpiCHO cells, purified (HiTrap Protein G HP, size exclusion chromatography)
B4: binds [2].

B5: mAb1512 (antibody, V domains shown)
VH: B4 VH
VL: B4 VL
notes: variable region as the heavy chain of m5 (PDB 7RXP); as the light chain of m5 (PDB 7RXP); IgG (captured by anti-human Fc); source: 293F cells, purified (Protein G Sepharose)
B5: binds [1].

B6: mAb236 (antibody, V domains shown)
VH: EVQLVESGGGLVQPGGSLRLSCVASGFNFTTYSMNWVRQAPGKGLEWVSYISSHSNLIYYATSVKGRFTISRDNAKNSLYLQMNSLRAEDTALYYCARGGSLHPSAGADWIDPWGQGTLVTVSS
VL: SYELTQAPSVSVSPGQTATITCSGDKLGDKFTSWYQQKPGQSPVLVIYQDSKRPSGIPERFSASNSGNTATLTISGTRAMDEADYYCQAWDSNTYVFGTGTRVAVL
notes: variable region as the heavy chain of m2 (PDB 7RXJ); as the light chain of m2 (PDB 7RXJ); IgG (captured by anti-human Fc); source: 293F cells, purified (Protein G Sepharose)
B6: binds [1].

B7: Fab236 (Fab, V domains shown)
VH: B6 VH
VL: B6 VL
notes: heavy chain of Fab236; light chain of Fab236; From an RTS,S/AS01 vaccinee; alpha-ctCSP class (IGHV3-21 or IGHV3-48 with IGLV3-21 or IGLV3-1); source: ExpiCHO cells, purified (HiTrap Protein G HP, size exclusion chromatography)
B7: binds [2].

B8: mAb352 (antibody, V domains shown)
VH: EVQLVESGGGLVKPGGSLRLSCAASGFSFSEYRMNWVRQAPGKGLEWVSFISSSGTYIDYADSVKGRFTISRDNVNNSLYLQMNNLRAGDTAVYYCARGMGIAVRRFDYWGQGTLVSVSS
VL: SYVLTQPPSVSVAPGQTAKITCGGNNIGSESVHWYQQKPGQAPVLVVYDDAVRPSGIPERFSGSNSRNTATLTISRVEAGDEAAYYCQVWDSSTVASFGGGTKLTVL
notes: variable region as the heavy chain of m3 (PDB 7S0X); as the light chain of m3 (PDB 7S0X); IgG (captured by anti-human Fc); source: 293F cells, purified (Protein G Sepharose)
B8: binds [1].

B9: Fab352 (Fab, V domains shown)
VH: B8 VH
VL: B8 VL
notes: heavy chain of Fab352; light chain of Fab352; From an RTS,S/AS01 vaccinee; alpha-ctCSP class (IGHV3-21 or IGHV3-48 with IGLV3-21 or IGLV3-1); source: ExpiCHO cells, purified (HiTrap Protein G HP, size exclusion chromatography)
B9: binds [2].
